Series [1] has as its target endogenous NPM of 293T cells, P06748.
For series [2], the target named is His-Flag-NPM (full length, recombinant, from E. coli), P06748.
Chain of His-Flag-NPM (full length, recombinant, from E. coli), P06748 (P06748 whole entry): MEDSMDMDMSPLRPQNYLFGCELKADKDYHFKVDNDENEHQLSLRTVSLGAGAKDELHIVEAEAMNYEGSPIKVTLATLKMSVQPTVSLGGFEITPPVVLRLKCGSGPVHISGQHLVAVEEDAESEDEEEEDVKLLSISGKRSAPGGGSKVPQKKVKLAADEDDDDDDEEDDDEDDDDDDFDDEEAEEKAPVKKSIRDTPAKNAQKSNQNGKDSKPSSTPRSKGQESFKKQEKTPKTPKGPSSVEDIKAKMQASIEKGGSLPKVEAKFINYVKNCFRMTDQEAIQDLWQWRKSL

Chain of endogenous NPM of 293T cells, P06748 (P06748 whole entry): as above

B1: Myc-BRCA1(1-772)/BARD1 complex (protein)
chain 1: MDLSALRVEEVQNVINAMQKILECPICLELIKEPVSTKCDHIFCKFCMLKLLNQKKGPSQCPLCKNDITKRSLQESTRFSQLVEELLKIICAFQLDTGLEYANSYNFAKKENNSPEHLKDEVSIIQSMGYRNRAKRLLQSEPENPSLQETSLSVQLSNLGTVRTLRTKQRIQPQKTSVYIELGSDSSEDTVNKATYCSVGDQELLQITPQGTRDEISLDSAKKAACEFSETDVTNTEHHQPSNNDLNTTEKRAAERHPEKYQGSSVSNLHVEPCGTNTHASSLQHENSSLLLTKDRMNVEKAEFCNKSKQPGLARSQHNRWAGSKETCNDRRTPSTEKKVDLNADPLCERKEWNKQKLPCSENPRDTEDVPWITLNSSIQKVNEWFSRSDELLGSDDSHDGESESNAKVADVLDVLNEVDEYSGSSEKIDLLASDPHEALICKSERVHSKSVESNIEDKIFGKTYRKKASLPNLSHVTENLIIGAFVTEPQIIQERPLTNKLKRKRRPTSGLHPEDFIKKADLAVQKTPEMINQGTNQTEQNGQVMNITNSGHENKTKGDSIQNEKNPNPIESLEKESAFKTKAEPISSSISNMELELNIHNSKAPKKNRLRRKSSTRHIHALELVVSRNLSPPNCTELQIDSCSSSEEIKKKKYNQMPVRHSRNLQLMEGKEPATGAKKSNKPNEQTSKRHDSDTFPELKLTNAPGSFTKCSNTSELKEFVNPSLPREEKEEKLETVKVSNNAEDPKDLMLSGERVLQTERSVESSSISLV
chain 2: MPDNRQPRNRQPRIRSGNEPRSAPAMEPDGRGAWAHSRAALDRLEKLLRCSRCTNILREPVCLGGCEHIFCSNCVSDCIGTGCPVCYTPAWIQDLKINRQLDSMIQLCSKLRNLLHDNELSDLKEDKPRKSLFNDAGNKKNSIKMWFSPRSKKVRYVVSKASVQTQPAIKKDASAQQDSYEFVSPSPPADVSERAKKASARSGKKQKKKTLAEINQKWNLEAEKEDGEFDSKEESKQKLVSFCSQPSVISSPQINGEIDLLASGSLTESECFGSLTEVSLPLAEQIESPDTKSRNEVVTPEKVCKNYLTSKKSLPLENNGKRGHHNRLSSPISKRCRTSILSTSGDFVKQTVPSENIPLPECSSPPSCKRKVGGTSGRKNSNMSDEFISLSPGTPPSTLSSSSYRRVMSSPSAMKLLPNMAVKRNHRGETLLHIASIKGDIPSVEYLLQNGSDPNVKDHAGWTPLHEACNHGHLKVVELLLQHKALVNTTGYQNDSPLHDAAKNGHVDIVKLLLSYGASRNAVNIFGLRPVDYTDDESMKSLLLLPEKNESSSASHCSVMNTGQRRDGPLVLIGSGLSSEQQKMLSELAVILKAKKYTEFDSTVTHVVVPGDAVQSTLKCMLGILNGCWILKFEWVKACLRRKVCEQEEKYEIPEGPRRSRLNREQLLPKLFDGCYFYLWGTFKHHPKDNLIKLVTAGGGQILSRKPKPDSDVTQTINTVAYHARPDSDQRFCTQYIIYEDLCNYHPERVRQGKVWKAPSSWFIDCVMSFELLPLDS
Regarding B1, in series [1], the “LC/MS/MS identification of proteins conjugated with Flag-ubiquitin in the reaction of the ligase immunocomplex” value is given as “Of the proteins identified, nucleophosmin/B23 (NPM) exhibited the highest possibility with 17 peptides displaying a probability based Mowse score of 126”.

B2: His-BRCA1 (1-304) / His-BARD1 (14-189) (protein)
chain 1: MDLSALRVEEVQNVINAMQKILECPICLELIKEPVSTKCDHIFCKFCMLKLLNQKKGPSQCPLCKNDITKRSLQESTRFSQLVEELLKIICAFQLDTGLEYANSYNFAKKENNSPEHLKDEVSIIQSMGYRNRAKRLLQSEPENPSLQETSLSVQLSNLGTVRTLRTKQRIQPQKTSVYIELGSDSSEDTVNKATYCSVGDQELLQITPQGTRDEISLDSAKKAACEFSETDVTNTEHHQPSNNDLNTTEKRAAERHPEKYQGSSVSNLHVEPCGTNTHASSLQHENSSLLLTKDRMNVEKAEF
chain 2: IRSGNEPRSAPAMEPDGRGAWAHSRAALDRLEKLLRCSRCTNILREPVCLGGCEHIFCSNCVSDCIGTGCPVCYTPAWIQDLKINRQLDSMIQLCSKLRNLLHDNELSDLKEDKPRKSLFNDAGNKKNSIKMWFSPRSKKVRYVVSKASVQTQPAIKKDASAQQDSYEFVSPSPPA
Consider B2, for which the “in vitro ubiquitination with purified recombinant proteins (anti-Flag immunoblot)” value in series [2] was “two slowly floating products were detected in the gel (lane 7)”.

Source of the values: patent US20100041096.
